Here are results for two substances from patent US20230039401A1, “COMPOSITIONS AND METHODS FOR TREATING NRP2-ASSOCIATED DISEASES” (aTyr Pharma, Inc., priority 2018, published 2023).

Common to all, as to type: binding
Experiment [1] concerns the target T1, CD86 (Homo sapiens, UniProt P42081).
T1 construct: host or cells: HEK293
T1 sequence (P42081 24-329): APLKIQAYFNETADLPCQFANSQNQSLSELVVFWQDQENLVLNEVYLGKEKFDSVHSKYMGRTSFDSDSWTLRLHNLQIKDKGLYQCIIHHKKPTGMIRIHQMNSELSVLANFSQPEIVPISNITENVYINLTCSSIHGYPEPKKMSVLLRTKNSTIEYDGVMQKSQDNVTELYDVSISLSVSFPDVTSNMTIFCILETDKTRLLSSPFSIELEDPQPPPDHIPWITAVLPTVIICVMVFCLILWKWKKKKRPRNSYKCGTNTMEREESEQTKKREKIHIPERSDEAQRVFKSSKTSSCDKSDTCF
The experiment can be described thus: Retrogenix cell microarray screen, CD86. Conditions: 20 μg/ml test protein. How it is done: (§1) To identify potential interacting partners of HRS, and related HRS polypeptides, the Retrogenix cell microarray screening technology (Retrogenix Ltd., High Peak Rd, United Kingdom) was used to evaluate binding of a HRS-Fc fusion protein construct ([Fc-HRS(2-60)] to a library of approximately 4500 membrane bound human proteins individually expressed in HEK293 cells.
(§2) In brief, HEK293 cells were plated onto glass cover slides which have been pre-treated by the application of discrete expression vectors to enable reverse transfection and expression of each of the 4500 membrane proteins, to create a cell microarray. Transfection efficiencies were assessed via ZsGreen1 expression and exceeded the minimum threshold for all of the library members screened.
(§3) Use of a smaller HRS fragment with a Fc tag provided for high sensitivity detection via the use of an AlexaFluor647 labeled anti-human IgG Fc antibody (AF647) as the detection reagent, and readily available controls to confirm specificity. The detection antibody was used at screening concentrations of 2, 5, and 20 μg/ml, as more fully described below. […]
(§4) Primary hits (duplicate spots) were identified by analyzing fluorescence intensity in the AlexaFluor 647 and ZsGreen1 emission channels using the ImageQuant system, following standard fluorescent methodology. […]

The target of experiment [2] is T2, FCGR2A (Homo sapiens, UniProt P12318).
T2 construct: host or cells: HEK293
T2 sequence (P12318 34-317): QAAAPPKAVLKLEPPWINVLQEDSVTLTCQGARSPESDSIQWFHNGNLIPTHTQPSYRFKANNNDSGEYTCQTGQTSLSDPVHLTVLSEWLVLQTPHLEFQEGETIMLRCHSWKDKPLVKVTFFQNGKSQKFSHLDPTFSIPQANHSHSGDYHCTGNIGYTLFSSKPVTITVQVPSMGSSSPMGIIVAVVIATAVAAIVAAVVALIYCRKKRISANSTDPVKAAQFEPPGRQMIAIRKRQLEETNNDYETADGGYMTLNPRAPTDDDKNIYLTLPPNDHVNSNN
The experiment can be described thus: Retrogenix cell microarray screen, FCGR2A. Conditions: sequential staining method; 20 μg/ml test protein; expressed in HEK293 cells. As to the method: as §1, §2, §3, §4

In experiment [3] the target is T3, SLC13A3 (Homo sapiens, UniProt Q8WWT9).
T3 construct: host or cells: HEK293
T3 sequence (Q8WWT9 1-602): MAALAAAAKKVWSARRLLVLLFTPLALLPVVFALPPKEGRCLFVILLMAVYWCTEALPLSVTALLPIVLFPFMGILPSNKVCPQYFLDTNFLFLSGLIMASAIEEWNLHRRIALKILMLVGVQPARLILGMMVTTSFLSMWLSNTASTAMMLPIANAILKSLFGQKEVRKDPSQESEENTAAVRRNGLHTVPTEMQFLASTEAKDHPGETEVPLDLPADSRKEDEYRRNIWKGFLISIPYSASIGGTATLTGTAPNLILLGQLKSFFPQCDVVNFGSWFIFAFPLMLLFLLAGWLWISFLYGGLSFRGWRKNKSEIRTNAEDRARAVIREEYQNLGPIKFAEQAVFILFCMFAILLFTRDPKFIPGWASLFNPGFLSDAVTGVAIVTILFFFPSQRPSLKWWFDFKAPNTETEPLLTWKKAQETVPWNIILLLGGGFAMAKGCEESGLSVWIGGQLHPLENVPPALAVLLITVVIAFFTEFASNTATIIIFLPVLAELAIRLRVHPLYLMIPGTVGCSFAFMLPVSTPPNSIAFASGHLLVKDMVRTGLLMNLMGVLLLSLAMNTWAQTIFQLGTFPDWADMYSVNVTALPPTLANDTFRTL
The experiment can be described thus: Retrogenix cell microarray screen, SLC13A3. Particulars: 20 μg/ml test protein; for Sequential incubation confirmatory screening result, SLC13A3: sequential staining method, expressed in HEK293 cells. How it is done: as §1, §2
Use of a smaller HRS fragment with a Fc tag provided for high sensitivity detection via the use of an AlexaFluor647 labeled anti-human IgG Fc antibody (AF647) as the detection reagent, and readily available controls to confirm specificity. The detection antibody was used at screening concentrations of 2, 5, and 20 μg/ml, as more fully described below.
Test Protein was screened at a concentration of 20 μg/ml using two different screening formats; either a sequential staining method, or a pre-incubation staining method. Sequential staining involved, in brief, the sequential addition to the test cells, of the test protein and detection reagents, while the pre-incubation staining method involved the pre-incubation of the test protein with the detection reagents (2:1 molar ratio of test protein to detection antibody) to pre-form higher avidity complexes prior to the addition to the test cells.
as §4

Experiment [4] deals with T4, IGHG3 (Homo sapiens, UniProt P01860).
T4 construct: host or cells: HEK293
T4 sequence (P01860 whole entry): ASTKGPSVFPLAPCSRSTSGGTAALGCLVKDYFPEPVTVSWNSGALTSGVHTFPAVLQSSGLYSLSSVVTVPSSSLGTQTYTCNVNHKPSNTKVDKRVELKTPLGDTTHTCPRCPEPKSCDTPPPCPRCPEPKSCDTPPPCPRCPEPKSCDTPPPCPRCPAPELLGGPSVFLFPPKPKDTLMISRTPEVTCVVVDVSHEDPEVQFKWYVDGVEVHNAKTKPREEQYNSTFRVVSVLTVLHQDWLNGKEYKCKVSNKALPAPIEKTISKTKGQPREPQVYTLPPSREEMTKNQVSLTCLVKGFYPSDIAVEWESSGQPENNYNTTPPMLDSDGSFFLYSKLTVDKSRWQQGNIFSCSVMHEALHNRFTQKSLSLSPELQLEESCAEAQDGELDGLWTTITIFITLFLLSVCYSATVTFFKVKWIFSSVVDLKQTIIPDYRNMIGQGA
The experiment can be described thus: Retrogenix cell microarray screen, IGHG3. Particulars: sequential staining method; 20 μg/ml test protein; expressed in HEK293 cells. As to the method: as §1, §2, §3, §4

Experiment [5] addresses T5, FCGR1A (Homo sapiens, UniProt P12314).
T5 construct: host or cells: HEK293
The experiment can be described thus: Retrogenix cell microarray screen, FCGR1A. Conditions: sequential staining method; 20 μg/ml test protein; expressed in HEK293 cells. As to the method: as §1, §2, §3, §4

In experiment [6] the target is T6, MS4A1 (Homo sapiens, UniProt P11836).
T6 construct: host or cells: HEK293
T6 sequence (P11836 1-297): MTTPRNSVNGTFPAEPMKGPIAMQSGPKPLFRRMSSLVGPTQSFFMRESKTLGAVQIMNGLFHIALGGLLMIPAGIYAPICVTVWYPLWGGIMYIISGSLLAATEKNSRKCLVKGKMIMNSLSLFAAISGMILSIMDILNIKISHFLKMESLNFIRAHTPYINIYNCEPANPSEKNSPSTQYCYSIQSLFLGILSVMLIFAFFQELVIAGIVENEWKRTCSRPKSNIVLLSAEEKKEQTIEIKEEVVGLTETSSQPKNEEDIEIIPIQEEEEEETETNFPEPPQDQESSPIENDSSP
The experiment can be described thus: Retrogenix cell microarray screen, MS4A1. Conditions: 20 μg/ml test protein. How it is done: as §1, §2, §3, §4

The mark [7] stands for this setting: pre-incubation staining method (2:1 test protein to detection antibody), HEK293 cells.
Where [8] appears, read: sequential staining method, expressed in HEK293 cells.

T5 sequence (P12314 16-374): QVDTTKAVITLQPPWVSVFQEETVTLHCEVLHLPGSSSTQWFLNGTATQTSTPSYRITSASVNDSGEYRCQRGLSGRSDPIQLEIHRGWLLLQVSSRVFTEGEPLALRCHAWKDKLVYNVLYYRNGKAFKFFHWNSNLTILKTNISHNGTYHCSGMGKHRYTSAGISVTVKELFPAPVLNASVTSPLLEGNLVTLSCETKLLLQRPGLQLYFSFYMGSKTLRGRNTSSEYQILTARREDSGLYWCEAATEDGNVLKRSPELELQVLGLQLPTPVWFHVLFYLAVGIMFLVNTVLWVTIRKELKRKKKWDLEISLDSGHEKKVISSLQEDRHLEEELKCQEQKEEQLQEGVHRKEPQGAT

For CTLA4-FC, the “Pre-incubation confirmatory screening, Binding scoring, CD86” value in experiment [1] (setting [7]) is “STRONG”. Besides, the “Sequential incubation confirmatory screening result, CD86” value in experiment [1] (setting [8]) is given as “STRONG”. In addition, the “Sequential incubation confirmatory screening result, FCGR2A” value in experiment [2] was “NON SPEC”. Further, the “Sequential incubation confirmatory screening result, SLC13A3” value in experiment [3] is reported as “NON SPEC”. Moreover, in experiment [4], the “Sequential incubation confirmatory screening result, IGHG3” value was “STRONG”. Further, in experiment [5], the “Sequential incubation confirmatory screening result, FCGR1A” value is listed as “NON SPEC”.
Turning to RITUXIMAB, the “Sequential incubation confirmatory screening result, FCGR2A” value in experiment [2] is “NON SPEC”. The “Pre-incubation confirmatory screening, Binding scoring, SLC13A3” value in experiment [3] (setting [7]) is reported as “INVERSE”. The “Sequential incubation confirmatory screening result, SLC13A3” value in experiment [3] is listed as “INVERSE”. Further, the “Sequential incubation confirmatory screening result, IGHG3” value in experiment [4] is on record as “STRONG”. The “Sequential incubation confirmatory screening result, FCGR1A” value in experiment [5] is recorded as “NON SPEC”. Moreover, in experiment [6] (setting [7]), the “Pre-incubation confirmatory screening, Binding scoring, MS4A1” value is listed as “STRONG”. In experiment [6] (setting [8]), the “Sequential incubation confirmatory screening result, MS4A1” value is given as “STRONG”.
